The values below come from publication PMC9881204, “Robust Covalent Aptamer Strategy Enables Sensitive Detection and Enhanced Inhibition of SARS-CoV-2 Proteins”.

The target of data set [1] is T1, SARS-CoV-2 spike RBD, wild type (SARS-CoV-2 (wild type), UniProt P0DTC2 319-541). The data set can be described thus: competition with ACE2-coated beads, flow cytometry; 10% FBS, 37 C; SPR: PBS + 5 mM MgCl2, 300 mM NaCl, 400 nM BLib, 2 ug/mL salmon sperm DNA, 25 C; flow cytometry in binding buffer, RT; neutralization in 10% FBS, 37 C; cross-linking in PBS pH 7.4 (SI: HEPES), RT. Particulars: protein: commercial.

The target in data set [2] is T1, SARS-CoV-2 spike RBD, wild type. Description: flow cytometry, RBD-coated Ni beads; room temperature; apparent (covalent cross-link); SPR: PBS + 5 mM MgCl2, 300 mM NaCl, 400 nM BLib, 2 ug/mL salmon sperm DNA, 25 C; flow cytometry in binding buffer, RT; neutralization in 10% FBS, 37 C; cross-linking in PBS pH 7.4 (SI: HEPES), RT. Particulars: protein: commercial.
Data set [3] has the same target. The data set can be described thus: flow cytometry, RBD-coated Ni beads; room temperature; SPR: PBS + 5 mM MgCl2, 300 mM NaCl, 400 nM BLib, 2 ug/mL salmon sperm DNA, 25 C; flow cytometry in binding buffer, RT; neutralization in 10% FBS, 37 C; cross-linking in PBS pH 7.4 (SI: HEPES), RT. Particulars: protein: commercial. (Flow cytometry measures light scatter and fluorescence of single cells or particles in a stream.)

The target of data set [4] is T2, SARS-CoV-2 nucleocapsid protein (NP) (SARS-CoV-2, UniProt P0DTC9 1-419). Description: SPR; Kd value only in Fig 3a; about 10-fold weaker than antibodies; SPR: PBS + 5 mM MgCl2, 300 mM NaCl, 400 nM BLib, 2 ug/mL salmon sperm DNA, 25 C; flow cytometry in binding buffer, RT; neutralization in 10% FBS, 37 C; cross-linking in PBS pH 7.4 (SI: HEPES), RT. Particulars: protein: commercial; tags: His; chain copies: 2; label: 3' biotin.

Data set [5] concerns the target T2, SARS-CoV-2 nucleocapsid protein (NP). Description: SPR; value only in Fig 3a; covalent; SPR: PBS + 5 mM MgCl2, 300 mM NaCl, 400 nM BLib, 2 ug/mL salmon sperm DNA, 25 C; flow cytometry in binding buffer, RT; neutralization in 10% FBS, 37 C; cross-linking in PBS pH 7.4 (SI: HEPES), RT. Particulars: protein: commercial; tags: His; chain copies: 2; label: 3' biotin. For orientation: In SPR one partner is held on a chip, and binding of the other changes the refractive index at the surface.

As to ATTACCGATGGCTTGTTTGTAATGTAGGGTTCCGTCGGAT (ssDNA, 5' NH2 conjugated to disuccinimidyl suberate (NHS ester)) [NHS-RApt (CRApt)], in data set [1], the IC50 was determined as 420 pM. In addition, in data set [2], the Kd is 240 pM.

As to ATTACCGATGGCTTGTTTGTAATGTAGGGTTCCGTCGGAT (ssDNA) [RApt], the Kd in data set [3] worked out at 5910 pM.

B1: B15 (ssDNA)
DNA: GCTGGATGTTCATGCTGGCAAAATTCCTTAGGGGCACCGTTACTTTGACACATCCAGCTTTTTTTT
B1: in data set [4], the binding result was “binds”.

B2: NHS-B15 (ssDNA)
DNA: GCTGGATGTTCATGCTGGCAAAATTCCTTAGGGGCACCGTTACTTTGACACATCCAGCTTTTTTTT
modifications: 5' NH2 conjugated to disuccinimidyl suberate (NHS ester)
B2: the binding result in data set [5] was “binds”.

B3: B61 (ssDNA)
DNA: GCTGGATGTTGACCTTTACAGATCGGATTCTGTGGGGCGTTAAACTGACACATCCAGCTTTTTTTT
With B3, in data set [4], the binding result was “binds”.

B4: NHS-B61 (ssDNA)
DNA: GCTGGATGTTGACCTTTACAGATCGGATTCTGTGGGGCGTTAAACTGACACATCCAGCTTTTTTTT
modifications: 5' NH2 conjugated to disuccinimidyl suberate (NHS ester)
As to B4, the binding result in data set [5] was “binds”.

In general, IC50 refers to the concentration at which inhibition is half-maximal.
